Assay results reported in publication PMC3968096.

Legend:
[1] = system: T1, VEGF165 (soluble) (human), P15692-4; test: F-EMSA; details: 1 mM Mg2+, 10 mM HEPES pH 7.9, 125 mM NaCl, 25 mM KCl, 1 mM MgCl2, F-EMSA at room temperature for 2 h, 5% PAGE at 4 C, flow cytometry in the same buffer
T1 sequence: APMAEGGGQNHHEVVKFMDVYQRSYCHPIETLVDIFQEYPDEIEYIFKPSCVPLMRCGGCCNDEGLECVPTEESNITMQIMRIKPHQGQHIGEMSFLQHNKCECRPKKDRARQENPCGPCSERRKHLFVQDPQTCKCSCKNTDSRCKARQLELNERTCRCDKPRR

[2] = target: PDGF-A (human) (UniProt P04085); test: flow cytometry, yeast display; details: 10 mM HEPES pH 7.9, 125 mM NaCl, 25 mM KCl, 1 mM MgCl2; F-EMSA at room temperature for 2 h, 5% PAGE at 4 C; flow cytometry in the same buffer

Sequence: AAAGCCCACTGCATAGAGGCCGCTCAACATGCGAGCCGGT [hVap2_T2160]
- Kd ([1]; same value is also printed for SL12): 107 nM

Sequence: CAGAGCAGGGCGCCGTGTCGCATAGTGTTGTCACTCCCCTGGAGGTCCATGCGAAATATG [hPAap1]
- Kd [2]: 4 µM

Sequence: TAGCCCACTGCATAGAGGTAGCCACGTATGTGGGTGTTACCCATTCGTAGCTACCGGTGA [hVap1 full-length (100 nt)]
- Kd [1]: 1.4 nM
